Experiment [1] concerns the target T1, Human NME7-AB, also known as NME7AB (recombinant, devoid of the DM10 domain) (human, UniProt Q9Y5B8 92-376).
T1 construct: Recombinant, expressed in E. coli, purified over NTA-Ni and by size exclusion; monomer of about 33 kDa; also called NME-AB
T1 sequence: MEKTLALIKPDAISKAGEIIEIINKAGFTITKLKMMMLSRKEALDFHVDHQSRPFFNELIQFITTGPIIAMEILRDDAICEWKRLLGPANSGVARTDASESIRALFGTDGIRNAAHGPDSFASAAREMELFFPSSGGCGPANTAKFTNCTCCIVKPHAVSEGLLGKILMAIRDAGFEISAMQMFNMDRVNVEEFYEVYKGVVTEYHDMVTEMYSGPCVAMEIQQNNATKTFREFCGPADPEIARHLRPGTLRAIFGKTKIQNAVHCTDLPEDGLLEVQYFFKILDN
In words: ELISA, plate coated with recombinant NME7-AB (FIG. 24). (In general: ELISA stands for enzyme-linked immunosorbent assay.)

For experiment [2], the target named is T1, Human NME7-AB, also known as NME7AB …. Description: sandwich ELISA, HRP signal (FIG. 1). As for the experimental part:
The PSMGFR peptide bearing a C-terminal Cysteine (PSMGFR-Cys) was covalently coupled to BSA using Imject Maleimide activated BSA kit (Thermo Fisher). PSMGFR-Cys coupled BSA was diluted to 10 ug/mL in 0.1M carbonate/bicarbonate buffer pH 9.6 and 50 uL was added to each well of a 96 well plate. After overnight incubation at 4° C., the plate was washed twice with PBS-T and a 3% BSA solution was added to block remaining binding site on the well. After 1h at RT the plate was washed twice with PBS-T and NME7, diluted in PBS-T+1% BSA, was added at different concentrations. After 1h at RT the plate was washed 3× with PBS-T and anti-NM23-H7 (B-9, Santa Cruz Biotechnology), diluted in PBS-T+1% BSA, was added at 1/500 dilution. […] After 1h at RT the plate was washed 3× with PBS-T and binding of NME7 was measured at 415 nm using ABTS solution (Pierce). […]
After 1h at RT the plate was washed 3× with PBS-T and His-Tagged PSMGFR peptide (PSMGFR-His) or biotinylated PSMGFR peptide (PSMGFR-biotin), diluted in PBS-T+1% BSA, was added at different concentration. […] After 1h at RT the plate was washed 3× with PBS-T and binding of PSMGFR peptide to NME7 already bound to another PSMGFR peptide (which could not signal by anti-His antibody or by streptavidin) coupled BSA was measured at 415 nm using a ABTS solution (Pierce).

Consider 4 molecules from US20220259324A1 (MINERVA BIOTECHNOLOGIES, published 2022).

B1: Monoclonal antibody 8F9A4A3 (antibody, V domains shown)
VH: VQLQQSGPELVKPGASVKISCKTSGNTFTEYTMHWVKQSHGKSLEWIGGFNPNNGVTNYNQKFKGKATLTVDKSSSTAYMELRSLTSEDSAVYYCARRYYHSLYVFYFDYWGQGTTLTVSS
VL: ETTVTQSPASLSMAIGEKVTIRCITSTDIDDDMNWYQQKPGEPPKLLISEGNTLRPGVPSRFSSSGYGTDFVFTIENMLSEDVADYYCLQSDNLPLTFGSGTKLEIKR
notes: Mouse monoclonal antibody
On to B1, for which the binding result in experiment [1] is reported as “binds”.

B2: Monoclonal Antibody 5F3A5D4 (antibody, V domains shown)
VH: VQLQQSGPDLVKPGTSVKISCKTSGNTFTEYTMHWVKQSHGKSLEWIGGFNPNNGVTNYNQKFKGKATLTVDKSSSTAYMELRSLTSEDSAVYYCARRYYHSTYVFYFDSWGQGTTLTVSS
VL: DIQMTQTTSSLSASLGDRVTISCSASQGISNYLNWFQQKPDGTIKLLIYYTSSLHSGVPSRFSGSGSGTDYSLTISNVEPEDIATYYCQQYSKLPYTFGGGTKLEIKR
notes: Mouse monoclonal antibody
For the molecule B2, the binding result in experiment [1] is recorded as “binds”.

B3: Monoclonal Antibody 8F9A5A1 (antibody, V domains shown)
VH: IQLVQSGPELKKPGETVKISCKASGYTFTNYGMNWVKQAPGKGLKWMGWINTYTGEPTYVDDFKGRFAFSLETSATTAYLQINNLKNEDTSTYFCARLRGIRPGPLAYWGQGTLVTVSA
VL: EILLTQSPAIIAASPGEKVTITCSASSSVSYMNWYQQKPGSSPKIWIYGISNLASGVPARFSGSGSGTSFSFTINSMEAEDVATYYCQQRSSYPPTFGGGTKLEIKR
notes: Mouse monoclonal antibody
In the case of B3, the binding result in experiment [1] was “binds”.

B4: PSMGFR peptide (MUC1* extra cellular domain peptide) (peptide)
peptide: GTINVHDVETQFNQYKTEAASRYNLTISDVSVSDVPFPFSAQSGA
notes: Synthetic peptide immobilized on ELISA plates; also called MUC1* peptide; FLR
Consider B4, for which, in experiment [2], the binding result was “binds”.
